5 molecules from article PMC7187728 (Biochemistry, 2018) can be followed below.

In data set [1] the target is T1, AaOSBS (Alicyclobacillus acidocaldarius, UniProt Z9M799VK71).
T1 sequence (Z9M799VK71 4-380): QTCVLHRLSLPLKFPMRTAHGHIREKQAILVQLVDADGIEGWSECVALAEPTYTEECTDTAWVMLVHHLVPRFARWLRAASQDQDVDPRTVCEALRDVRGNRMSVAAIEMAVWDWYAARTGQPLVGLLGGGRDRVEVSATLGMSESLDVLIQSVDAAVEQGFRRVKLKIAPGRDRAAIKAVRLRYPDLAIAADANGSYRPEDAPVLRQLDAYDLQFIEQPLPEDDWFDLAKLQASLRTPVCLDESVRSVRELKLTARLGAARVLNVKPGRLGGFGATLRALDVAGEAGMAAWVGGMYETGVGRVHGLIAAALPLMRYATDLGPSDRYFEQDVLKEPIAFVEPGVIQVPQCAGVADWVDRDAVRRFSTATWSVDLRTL
Briefly: inhibition of OSBS activity, SHCHC loss at […] nm. In kind it is biochemical.

The subject of data set [2] is O=C(O)CCC(=O)C1=CC=C[C@@H](O)[C@@H]1C(=O)O. Briefly: purified protein. In kind it is biochemical, Alicyclobacillus acidocaldarius. As to conditions: 50 mM Tris pH 8.0, 0.1 mM MnCl2, 25 °C.
Substrate in data set [3]: O=C(O)CCC(=O)C1=CC=C[C@@H](O)[C@@H]1C(=O)O
The experiment in a line: purified protein. In kind it is biochemical, Amycolatopsis mediterranei. To be noted: 50 mM Tris pH 8.0, 0.1 mM MnCl2, 25 °C.

Substrate in data set [4]: O=C(O)CCC(=O)N[C@@H](C(=O)O)c1ccccc1
Briefly: purified protein. In kind it is biochemical, Amycolatopsis mediterranei. As to conditions: 200 mM Tris pH 8.0, 0.1 mM MnCl2.

Substrate in data set [5]: O=C(O)CCC(=O)C1=CC=C[C@@H](O)[C@@H]1C(=O)O
The experiment in a line: purified protein. In kind it is biochemical, Roseiflexus castenholzii. To be noted: 50 mM Tris pH 8.0, 0.1 mM MnCl2, 25 °C.

Substrate in data set [6]: O=C(O)CCC(=O)N[C@@H](C(=O)O)c1ccccc1
The experiment in a line: purified protein. In kind it is biochemical, Roseiflexus castenholzii. To be noted: 200 mM Tris pH 8.0, 0.1 mM MnCl2.

By Ki is commonly meant a measure of affinity in units of concentration, obtained from inhibition or displacement. Low readings indicate a stronger hold on the target, high ones a looser hold on the target. The Km is the concentration of substrate that gives half-maximal velocity. As a reminder, the kcat is the maximal rate divided by the concentration of active sites. Broadly, the kcat/Km is the turnover number divided by the Michaelis constant.

With `O=C(O)CCC(=O)N[C@@H](C(=O)O)c1ccccc1` [D-NSPG, N-succinyl-D-phenylglycine], the affinity in data set [1] corresponds to a Ki of 3.6 ± 0.4 mM.

On to “AaOSBS (Alicyclobacillus acidocaldarius)”, for which, in data set [2], the Km worked out at 118 ± 18 µM, the kcat is 64 ± 3 s⁻¹ and the kcat/Km was 540000 M⁻¹ s⁻¹.

Consider `O=C(O)CCC(=O)N[C@H](C(=O)O)c1ccccc1` [L-NSPG, N-succinyl-L-phenylglycine], for which the Ki in data set [1] was 2.6 ± 0.4 mM.

B1: AmedNSAR (Amycolatopsis mediterranei S699) (protein)
chain: MKLTGVELLRVRMPLVAPFRTSFGTQAERELLLLRAVTSEGEGWGECGAMAGPLYSAEYIDGVEHVLQAFLVPALLAAGDLTAHKVAPLLAKFKGHRMAKAALEMAVLDAELRAHGLSFGTALGSTSDSVPCGVSVGIMDSIPQLVDVVGGYLDAGYLRIKLKIEPGWDVEPVRAVRERFGDDILLQVDANTAYTLSDVPQLQRLDPFGLLLIEQPLEEEDVLGHAELARHLRTPICLDETVVSAASAAAAIRLGACRIVNIKPSRVGGYLEARRVHDVCAAHGIPVWCGGMLETGLGRAANVALASLPGFTLPGDTSASDRFYRTDITEPFVLEAGRLPVPSGPGLGVTPIPERLAEVTTAKSWLA
For B1, in data set [3], the Km is 415 ± 39 µM, the kcat came to 242 ± 11 s⁻¹ and the kcat/Km was determined as 580000 M⁻¹ s⁻¹. For the same molecule, in data set [4], the Km is 2800 ± 550 µM, the turnover number (kcat) was 74 ± 7 s⁻¹ and the specificity constant (kcat/Km) turned out to be 26000 M⁻¹ s⁻¹.

B2: RcNSAR/OSBS (Roseiflexus castenholzii DSM 13941) (protein)
chain: MKIESITLHHIDMPLVAPFETSFGRETHRPCILIEMRADGLTGWGECVAGAGPWYAYETIGTAWHIISDFLAPMIVGQEITEPIGIVERFASVRGHPMARAAVEAAFWDLYAQARGVSLARLIGATRDRVTVGVSVGIELTLEAQLASIERFVAAGYARIKLKIKPGWDVAVVRAVRERWPDIALQVDANSAYTPDDAPIFRELDEMNLLLIEQPLHHDDIVDHARLQAQISTPICLDESIHSPEHARWALDIDACRVINIKIGRVGGLTAARQIHDLCAERGVPVWCGGMLETNVGRAVNLALAALPNFALPGDISASARYYHRDIAAPDFVLNDDSTITVPDTPGTGVAVLPERLRDVQVREVIIGKG
As to B2, in data set [5], the Km stood at 155 ± 22 µM, the catalytic constant (kcat) was determined as 38 ± 3 s⁻¹ and the kcat/Km was found to be 250000 M⁻¹ s⁻¹. Moreover, in data set [6], the Km is 1800 ± 230 µM, the catalytic constant (kcat) is 15 ± 4 s⁻¹ and the kcat/Km was 8300 M⁻¹ s⁻¹.
